Assay results as given in US11965039B2, “Compstatin analogues and their medical uses” (priority 2018, dated 2024).
Starred links: 1 amine or outer side, 2 acyl side, 3 side chain; linkers in the order of their positions; H or OH if unused. Positions of bridges follow the written chain, without caps; N, C: chain ends. Non-standard residues stand in square brackets, D forms with d. Groups on a side chain read outwards from the residue. *: point of attachment. (Piperazine-1-yl)‑acetyl = piperazin-1-yl-acetyl spacer, O=C(CN1CCN([*:1])CC1)[*:2]; C20 diacid = O=C(O)CCCCCCCCCCCCCCCCCCC(=O)*; Trp(1-Me) = Cn1cc(C[C@H](N)C(=O)O)c2ccccc21; C18 diacid = O=C(O)CCCCCCCCCCCCCCCCC(=O)*; C16 diacid = O=C(O)CCCCCCCCCCCCCCC(=O)*; γGlu = O=C(O)[C@H](CCC(=O)[*:2])N[*:1]; AEEA = NCCOCCOCC(=O)O; Sar = CNCC(=O)O

B1: Compound 101 (peptide)
peptide: Ac-EGSAICIWQDWGEHRCTEGK([γGlu-C16 diacid])-NH2
modifications: disulfide 6-16
SMILES: CC[C@H](C)[C@H](NC(=O)[C@H](C)NC(=O)[C@H](CO)NC(=O)CNC(=O)[C@H](CCC(=O)O)NC(C)=O)C(=O)N[C@H]1CSSC[C@@H](C(=O)N[C@H](C(=O)N[C@@H](CCC(=O)O)C(=O)NCC(=O)N[C@@H](CCCCNC(=O)CC[C@H](NC(=O)CCCCCCCCCCCCCCC(=O)O)C(=O)O)C(N)=O)[C@@H](C)O)NC(=O)[C@H](CCCNC(=N)N)NC(=O)[C@H](Cc2c[nH]cn2)NC(=O)[C@H](CCC(=O)O)NC(=O)CNC(=O)[C@H](Cc2c[nH]c3ccccc23)NC(=O)[C@H](CC(=O)O)NC(=O)[C@H](CCC(N)=O)NC(=O)[C@H](Cc2c[nH]c3ccccc23)NC(=O)[C@H]([C@@H](C)CC)NC1=O
B2: Compound 103 (peptide)
peptide: Ac-EGSAYCI[Trp(1-Me)]QDWGEHK([AEEA-AEEA-γGlu-C16 diacid])C[Sar]E-NH2
modifications: disulfide 6-16
SMILES: CC[C@H](C)[C@@H]1NC(=O)[C@@H](NC(=O)[C@H](Cc2ccc(O)cc2)NC(=O)[C@H](C)NC(=O)[C@H](CO)NC(=O)CNC(=O)[C@H](CCC(=O)O)NC(C)=O)CSSC[C@@H](C(=O)N(C)CC(=O)N[C@@H](CCC(=O)O)C(N)=O)NC(=O)[C@H](CCCCNC(=O)COCCOCCNC(=O)COCCOCCNC(=O)CC[C@H](NC(=O)CCCCCCCCCCCCCCC(=O)O)C(=O)O)NC(=O)[C@H](Cc2c[nH]cn2)NC(=O)[C@H](CCC(=O)O)NC(=O)CNC(=O)[C@H](Cc2c[nH]c3ccccc23)NC(=O)[C@H](CC(=O)O)NC(=O)[C@H](CCC(N)=O)NC(=O)[C@H](Cc2cn(C)c3ccccc23)NC1=O
B3: Compound 94 (peptide)
peptide: Ac-ICIWQDWGEHRCTEGEK([AEEA-AEEA-γGlu-C16 diacid])-NH2
modifications: disulfide 2-12
SMILES: CC[C@H](C)[C@H](NC(C)=O)C(=O)N[C@H]1CSSC[C@@H](C(=O)N[C@H](C(=O)N[C@@H](CCC(=O)O)C(=O)NCC(=O)N[C@@H](CCC(=O)O)C(=O)N[C@@H](CCCCNC(=O)COCCOCCNC(=O)COCCOCCNC(=O)CC[C@H](NC(=O)CCCCCCCCCCCCCCC(=O)O)C(=O)O)C(N)=O)[C@@H](C)O)NC(=O)[C@H](CCCNC(=N)N)NC(=O)[C@H](Cc2c[nH]cn2)NC(=O)[C@H](CCC(=O)O)NC(=O)CNC(=O)[C@H](Cc2c[nH]c3ccccc23)NC(=O)[C@H](CC(=O)O)NC(=O)[C@H](CCC(N)=O)NC(=O)[C@H](Cc2c[nH]c3ccccc23)NC(=O)[C@H]([C@@H](C)CC)NC1=O
B4: Compound 100 (peptide)
peptide: Ac-K([AEEA-AEEA-γGlu-C16 diacid])GSAICIWQDWGEHRCTEGE-NH2
modifications: disulfide 6-16
SMILES: CC[C@H](C)[C@H](NC(=O)[C@H](C)NC(=O)[C@H](CO)NC(=O)CNC(=O)[C@H](CCCCNC(=O)COCCOCCNC(=O)COCCOCCNC(=O)CC[C@H](NC(=O)CCCCCCCCCCCCCCC(=O)O)C(=O)O)NC(C)=O)C(=O)N[C@H]1CSSC[C@@H](C(=O)N[C@H](C(=O)N[C@@H](CCC(=O)O)C(=O)NCC(=O)N[C@@H](CCC(=O)O)C(N)=O)[C@@H](C)O)NC(=O)[C@H](CCCNC(=N)N)NC(=O)[C@H](Cc2c[nH]cn2)NC(=O)[C@H](CCC(=O)O)NC(=O)CNC(=O)[C@H](Cc2c[nH]c3ccccc23)NC(=O)[C@H](CC(=O)O)NC(=O)[C@H](CCC(N)=O)NC(=O)[C@H](Cc2c[nH]c3ccccc23)NC(=O)[C@H]([C@@H](C)CC)NC1=O
B5: Compound 96 (peptide)
peptide: Ac-ICIWQDWGEHRCTEGK([AEEA-AEEA-γGlu-C18 diacid])-NH2
modifications: disulfide 2-12
SMILES: CC[C@H](C)[C@H](NC(C)=O)C(=O)N[C@H]1CSSC[C@@H](C(=O)N[C@H](C(=O)N[C@@H](CCC(=O)O)C(=O)NCC(=O)N[C@@H](CCCCNC(=O)COCCOCCNC(=O)COCCOCCNC(=O)CC[C@H](NC(=O)CCCCCCCCCCCCCCCCC(=O)O)C(=O)O)C(N)=O)[C@@H](C)O)NC(=O)[C@H](CCCNC(=N)N)NC(=O)[C@H](Cc2c[nH]cn2)NC(=O)[C@H](CCC(=O)O)NC(=O)CNC(=O)[C@H](Cc2c[nH]c3ccccc23)NC(=O)[C@H](CC(=O)O)NC(=O)[C@H](CCC(N)=O)NC(=O)[C@H](Cc2c[nH]c3ccccc23)NC(=O)[C@H]([C@@H](C)CC)NC1=O
B6: Compound 5 (peptide)
peptide: Ac-ICIWQDWGKHRCT-NH2
modifications: disulfide 2-12
SMILES: CC[C@H](C)[C@H](NC(C)=O)C(=O)N[C@H]1CSSC[C@@H](C(=O)N[C@H](C(N)=O)[C@@H](C)O)NC(=O)[C@H](CCCNC(=N)N)NC(=O)[C@H](Cc2c[nH]cn2)NC(=O)[C@H](CCCCN)NC(=O)CNC(=O)[C@H](Cc2c[nH]c3ccccc23)NC(=O)[C@H](CC(=O)O)NC(=O)[C@H](CCC(N)=O)NC(=O)[C@H](Cc2c[nH]c3ccccc23)NC(=O)[C@H]([C@@H](C)CC)NC1=O
B7: Compound 108 (peptide)
peptide: {C18 diacid}-EGSEYCI[Trp(1-Me)]QDWGEHRC[Sar]E-NH2
modifications: disulfide 6-16
SMILES: CC[C@H](C)[C@@H]1NC(=O)[C@@H](NC(=O)[C@H](Cc2ccc(O)cc2)NC(=O)[C@H](CCC(=O)O)NC(=O)[C@H](CO)NC(=O)CNC(=O)[C@H](CCC(=O)O)NC(=O)CCCCCCCCCCCCCCCCC(=O)O)CSSC[C@@H](C(=O)N(C)CC(=O)N[C@@H](CCC(=O)O)C(N)=O)NC(=O)[C@H](CCCNC(=N)N)NC(=O)[C@H](Cc2c[nH]cn2)NC(=O)[C@H](CCC(=O)O)NC(=O)CNC(=O)[C@H](Cc2c[nH]c3ccccc23)NC(=O)[C@H](CC(=O)O)NC(=O)[C@H](CCC(N)=O)NC(=O)[C@H](Cc2cn(C)c3ccccc23)NC1=O
B8: Compound 97 (peptide)
peptide: Ac-ICIWQDWGEHRCTEGEK([AEEA-AEEA-γGlu-C18 diacid])-NH2
modifications: disulfide 2-12
SMILES: CC[C@H](C)[C@H](NC(C)=O)C(=O)N[C@H]1CSSC[C@@H](C(=O)N[C@H](C(=O)N[C@@H](CCC(=O)O)C(=O)NCC(=O)N[C@@H](CCC(=O)O)C(=O)N[C@@H](CCCCNC(=O)COCCOCCNC(=O)COCCOCCNC(=O)CC[C@H](NC(=O)CCCCCCCCCCCCCCCCC(=O)O)C(=O)O)C(N)=O)[C@@H](C)O)NC(=O)[C@H](CCCNC(=N)N)NC(=O)[C@H](Cc2c[nH]cn2)NC(=O)[C@H](CCC(=O)O)NC(=O)CNC(=O)[C@H](Cc2c[nH]c3ccccc23)NC(=O)[C@H](CC(=O)O)NC(=O)[C@H](CCC(N)=O)NC(=O)[C@H](Cc2c[nH]c3ccccc23)NC(=O)[C@H]([C@@H](C)CC)NC1=O
B9: Compound 109 (peptide)
peptide: Ac-EGSAYCI[Trp(1-Me)]QDWGEHRC[Sar]EGEK([γGlu-Gly-γGlu-C18 diacid])-NH2
modifications: disulfide 6-16
SMILES: CC[C@H](C)[C@@H]1NC(=O)[C@@H](NC(=O)[C@H](Cc2ccc(O)cc2)NC(=O)[C@H](C)NC(=O)[C@H](CO)NC(=O)CNC(=O)[C@H](CCC(=O)O)NC(C)=O)CSSC[C@@H](C(=O)N(C)CC(=O)N[C@@H](CCC(=O)O)C(=O)NCC(=O)N[C@@H](CCC(=O)O)C(=O)N[C@@H](CCCCNC(=O)CC[C@H](NC(=O)CNC(=O)CC[C@H](NC(=O)CCCCCCCCCCCCCCCCC(=O)O)C(=O)O)C(=O)O)C(N)=O)NC(=O)[C@H](CCCNC(=N)N)NC(=O)[C@H](Cc2c[nH]cn2)NC(=O)[C@H](CCC(=O)O)NC(=O)CNC(=O)[C@H](Cc2c[nH]c3ccccc23)NC(=O)[C@H](CC(=O)O)NC(=O)[C@H](CCC(N)=O)NC(=O)[C@H](Cc2cn(C)c3ccccc23)NC1=O
B10: Compound 110 (peptide)
peptide: Ac-EGSAYCI[Trp(1-Me)]QDWGEHRC[Sar]EGKK([γGlu-Gly-γGlu-C18 diacid])-NH2
modifications: disulfide 6-16
SMILES: CC[C@H](C)[C@@H]1NC(=O)[C@@H](NC(=O)[C@H](Cc2ccc(O)cc2)NC(=O)[C@H](C)NC(=O)[C@H](CO)NC(=O)CNC(=O)[C@H](CCC(=O)O)NC(C)=O)CSSC[C@@H](C(=O)N(C)CC(=O)N[C@@H](CCC(=O)O)C(=O)NCC(=O)N[C@@H](CCCCN)C(=O)N[C@@H](CCCCNC(=O)CC[C@H](NC(=O)CNC(=O)CC[C@H](NC(=O)CCCCCCCCCCCCCCCCC(=O)O)C(=O)O)C(=O)O)C(N)=O)NC(=O)[C@H](CCCNC(=N)N)NC(=O)[C@H](Cc2c[nH]cn2)NC(=O)[C@H](CCC(=O)O)NC(=O)CNC(=O)[C@H](Cc2c[nH]c3ccccc23)NC(=O)[C@H](CC(=O)O)NC(=O)[C@H](CCC(N)=O)NC(=O)[C@H](Cc2cn(C)c3ccccc23)NC1=O
B11: Compound 98 (peptide)
peptide: Ac-ICIWQDWGEHRCTEGK([AEEA-AEEA-γGlu-C20 diacid])-NH2
modifications: disulfide 2-12
SMILES: CC[C@H](C)[C@H](NC(C)=O)C(=O)N[C@H]1CSSC[C@@H](C(=O)N[C@H](C(=O)N[C@@H](CCC(=O)O)C(=O)NCC(=O)N[C@@H](CCCCNC(=O)COCCOCCNC(=O)COCCOCCNC(=O)CC[C@H](NC(=O)CCCCCCCCCCCCCCCCCCC(=O)O)C(=O)O)C(N)=O)[C@@H](C)O)NC(=O)[C@H](CCCNC(=N)N)NC(=O)[C@H](Cc2c[nH]cn2)NC(=O)[C@H](CCC(=O)O)NC(=O)CNC(=O)[C@H](Cc2c[nH]c3ccccc23)NC(=O)[C@H](CC(=O)O)NC(=O)[C@H](CCC(N)=O)NC(=O)[C@H](Cc2c[nH]c3ccccc23)NC(=O)[C@H]([C@@H](C)CC)NC1=O

What follows are binders tested against Human C3 (Complement tech cat #A113c) (human, UniProt P01024 23-1663) (assay: cell-based or functional assay).
Sequence of Human C3 (Complement tech cat #A113c) (P01024 23-1663 limits assumed): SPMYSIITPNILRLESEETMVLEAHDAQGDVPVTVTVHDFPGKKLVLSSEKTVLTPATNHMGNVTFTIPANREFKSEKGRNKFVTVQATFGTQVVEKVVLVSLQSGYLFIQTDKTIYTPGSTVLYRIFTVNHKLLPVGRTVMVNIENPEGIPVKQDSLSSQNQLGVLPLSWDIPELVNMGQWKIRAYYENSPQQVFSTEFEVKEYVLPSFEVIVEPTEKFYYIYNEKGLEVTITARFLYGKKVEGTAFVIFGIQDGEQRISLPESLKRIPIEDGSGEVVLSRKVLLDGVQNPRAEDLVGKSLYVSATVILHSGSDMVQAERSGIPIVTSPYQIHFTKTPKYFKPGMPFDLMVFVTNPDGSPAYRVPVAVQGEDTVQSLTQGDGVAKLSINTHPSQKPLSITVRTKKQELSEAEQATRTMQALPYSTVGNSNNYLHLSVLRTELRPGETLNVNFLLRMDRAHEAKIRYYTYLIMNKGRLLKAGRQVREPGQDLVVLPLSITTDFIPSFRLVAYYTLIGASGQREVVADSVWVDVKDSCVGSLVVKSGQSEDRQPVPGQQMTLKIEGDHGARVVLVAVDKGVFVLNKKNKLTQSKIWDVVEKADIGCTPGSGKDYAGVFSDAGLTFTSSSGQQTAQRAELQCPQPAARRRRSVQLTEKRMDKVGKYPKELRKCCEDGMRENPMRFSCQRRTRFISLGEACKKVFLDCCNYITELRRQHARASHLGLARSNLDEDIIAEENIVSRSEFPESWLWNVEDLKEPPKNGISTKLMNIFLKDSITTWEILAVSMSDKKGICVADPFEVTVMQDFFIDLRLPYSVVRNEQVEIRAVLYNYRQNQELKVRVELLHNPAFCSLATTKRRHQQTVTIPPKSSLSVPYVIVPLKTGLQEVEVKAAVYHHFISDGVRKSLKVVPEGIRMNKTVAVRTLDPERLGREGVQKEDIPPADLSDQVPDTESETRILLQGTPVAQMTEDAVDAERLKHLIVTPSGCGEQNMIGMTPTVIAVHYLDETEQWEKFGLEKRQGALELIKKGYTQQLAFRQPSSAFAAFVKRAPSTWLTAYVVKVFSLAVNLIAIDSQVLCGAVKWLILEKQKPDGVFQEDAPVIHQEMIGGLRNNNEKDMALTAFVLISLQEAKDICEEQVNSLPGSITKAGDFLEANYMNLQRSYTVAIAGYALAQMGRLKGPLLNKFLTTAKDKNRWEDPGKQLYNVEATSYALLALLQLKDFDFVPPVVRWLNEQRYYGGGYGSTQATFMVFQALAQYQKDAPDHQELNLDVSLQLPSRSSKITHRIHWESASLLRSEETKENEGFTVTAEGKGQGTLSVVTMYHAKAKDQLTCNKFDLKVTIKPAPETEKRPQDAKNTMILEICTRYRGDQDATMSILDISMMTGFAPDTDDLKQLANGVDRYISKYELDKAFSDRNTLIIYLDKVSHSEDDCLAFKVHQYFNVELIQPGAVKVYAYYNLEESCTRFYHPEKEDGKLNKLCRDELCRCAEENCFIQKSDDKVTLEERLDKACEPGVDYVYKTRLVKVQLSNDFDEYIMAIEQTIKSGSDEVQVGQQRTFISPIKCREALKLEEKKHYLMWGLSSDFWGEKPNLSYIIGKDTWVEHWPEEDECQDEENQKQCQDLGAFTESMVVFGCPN

Row | Binder | inhibition of hemolysis IC50
1 | B1 | < 500 nM
2 | B2 | < 100 nM
3 | Ac-SAYCI[Trp(1-Me)]QDWGEHRC[Sar]EK([γGlu-Gly-Lys-γGlu-C18 diacid])-NH2 (disulfide 4-14) [Compound 105] | < 100 nM
4 | {C16 diacid}-ESSAICIWQDWGEHRCTEGE-NH2 (disulfide 6-16) [Compound 99] | < 250 nM
5 | B3 | < 500 nM
6 | B4 | < 500 nM
7 | B5 | < 1000 nM
8 | Ac-ICIWQDWGEHRCTEGK([AEEA-AEEA-(Piperazine-1-yl)‑acetyl-C16 diacid])-NH2 (disulfide 2-12) [Compound 95] | < 500 nM
9 | B6 | < 250 nM
10 | B7 | < 500 nM
11 | B8 | < 250 nM
12 | B9 | < 250 nM
13 | B10 | < 250 nM
14 | B11 | < 500 nM
